{"source": "patent US7932067B2", "about": "“Detection, isolation and uses of renalase (monoamine oxidase C)” (Yale University, priority 2004, dated 2011)", "molecules": {"B1": {"name": "Renalase: novel FAD-dependent monoamine oxidase secreted by the kidney that metabolizes dopamine, norepinephrine and epinephrine; SEQ ID NO: 2 (protein, listed as Homo sapiens)", "chain": "MAQVLIVGAGMTGSLCAALLRRQTSGPLYLAVWDKADDSGGRMTTACSPHNPQCTADLGAQYITCTPHYAKKHQRFYDELLAYGVLRPLSSPIEGMVMKEGDCNFVAPQGISSIIKHYLKESGAEVYFRHRVTQINLRDDKWEVSKQTGSPEQFDLIVLTMPVPEILQLQGDITTLISECQRQQLEAVSYSSRYALGLFYEAGTKIDVPWAGQYITSNPCIRFVSIDNKKRNIESSEIGPSLVIHTTVPFGVTYLEHSIEDVQELVFQQLENILPGLPQPIATKCQKWRHSQVTNAAANCPGQMTLHHKPFLACGGDGFTQSNFDGCITSALCVLEALKNYI"}}, "key": {"nephrectomized rats [1]": {"tested_on": "nephrectomized rats", "test": "Prophylactic model for chronic renal failure (rat remnant kidney model)", "format": "in vivo", "conditions": "100 microgram/kg SQ twice per day, 8-9 weeks", "from_the_text": "(§1) A rat partial (5/6) nephrectomy or rat remnant kidney model can be used as described (Wada, M et al; J Clin Invest 1997 Dec. 15; 100(12):2977-83). Male rats (2-3 months old, weighing about 150-200 g) are subjected to unilateral nephrectomy (either left or right kidney) first. A 2.0 cm skin incision is made in the ventral midline, with its cranial terminus 1.0 cm caudal to the xyphoid process. A 2.0 cm muscle incision is made along the midline. The right kidney is isolated and cleared of surrounding fat and connective tissue to clearly view the renal artery and vein, and ureter as they enter the hilus of the kidney. Care is exercised to minimize disturbance of the adrenal gland. A ligature (3/0 silk) is placed around the renal artery, vein and ureter. These vessels are then cut proximal to the kidney and the kidney is removed, taking care that the adrenal gland is not disturbed. The second step of the surgical procedure involves the removal of the 2/3 of the remaining kidney in 7-10 days after the first step. Plasma creatinine (Cr) and BUN levels rise dramatically due to the loss of renal mass and function. Over the next several weeks, plasma Cr and BUN levels of surviving animals decline somewhat toward normal values but remain elevated. Renal function then appears to remain relatively constant or stable for a period of variable duration. […]"}, "Sprague Dawley rats": {"tested_on": "Sprague Dawley rats", "test": "Hemodynamics measurements after bolus intravenous injection of recombinant renalase", "format": "in vivo, rat", "protocol": "Sprague Dawley rats (150-250 g) were anesthetized with inactin (100 mg/kg). A catheter (PE-240) was placed in the trachea for airway protection and in the left jugular vein (PE-50) for intravenous infusion of a maintenance fluid solution consisting of normal saline with 6.25% bovine albumin, at a rate of 1.5 ml per 100 g body wt per hour. Core temperature was monitored through a rectal thermometer and body temperature was maintained at 37° C. using a heating pad. Arterial pressure and heart rate were continuously monitored through a PE-50 catheter inserted in the left carotid artery and connected to a pressure transducer (ADInstruments, CO, USA). Hemodynamic recordings were digitized, stored and analyzed using a PowerLab/8SP data acquisition system (ADIntruments). The rats were allowed 1 h to recover after completion of the surgical procedure, and the subsequent 30 minutes served as a control period. The experimental group then received a bolus intravenous injection of 0.5 mg of recombinant renalase in 0.5 ml PBS. The control group was injected with either 0.5 mg BSA or 0.5 mg recombinant glutathione transferase in 0.5 ml of PBS. Blood pressure and heart rate were continuously measured and recorded.\nBlood pressure is a function of cardiac output and peripheral vascular resistance, and is regulated by the sympathetic nervous system. Circulating catecholamines control heart rate, myocardial contractility, and the tone of resistance vessels. Since renalase circulates in blood and degrades catecholamines, we examined its in vivo effect on hemodynamic parameters. Within 30 seconds of a single bolus intravenous injection of recombinant renalase, systolic, diastolic and mean arterial pressure decreased by 23.5±1.3, 32.6±2.9 and 28.9±2.7% respectively, (n=4, p<0.001). […] Heart rate remained unchanged initially, and decreased slightly (6.4%) by 60 min, (FIG. 7A, lower panel). In control studies, blood pressure and heart rate were unaffected by either albumin or GST infusion (FIG. 7B). […] Alternatively, renalase could bind to a cognate receptor and modulate myocardial contractility and vascular resistance directly."}, "nephrectomized rats [2]": {"tested_on": "nephrectomized rats", "test": "Intervention model for chronic renal failure (rat remnant kidney model)", "format": "in vivo", "conditions": "nephrectomized rats, 10, 100, 500 microgram/kg SQ twice per day, 4-8 weeks", "from_the_text": "as §1"}, "[3]": {"test": "Amine oxidase assay of renalase (Amplex Red Monoamine Oxidase Assay Kit) with amines as substrates", "format": "biochemical, human", "conditions": "GST-renalase fusion protein, battery of amines as substrates, 2 mM", "protocol": "Enzyme assay of renalase was carried out using an Amplex Red Monoamine Oxidase Assay Kit (Molecular Probes, Cat # A-12214) that provides one-step fluorometric method for the continuous measurement of amine oxidase activity using a fluorescence microplate reader. The assay is based on the detection of H2O2 in a horseradish peroxidase-coupled reaction using 10-acetyl-3,7-dihydroxy-phenoxazine (Amplex Red reagent), a highly sensitive and stable probe for H2O2. Experiments were carried out according to manufacturer's instruction with a final substrate concentration of 2 mM.\nTherefore, we tested whether it had oxidase activity using a battery of amines as substrates. Renalase fusion protein in E. Coli was generated by cloning renalase cDNA into a Glutathione-S-Transferase (GST)-1-containing pGEX expression vector using the GST Gene Fusion System. […] Its enzymatic activity was unaffected by inhibitors of the FAD-containing amine oxidases, MAO-A and MAO-B (FIG. 4b).\nWe subsequently tested whether renalase has an oxidase activity using a battery of amines as substrates. […] Thus, it can be concluded that renalase is novel protein that metabolizes dopamine, norepinephrine and epinephrine."}, "[4]": {"conditions": "rat, nadir between 60-90 minutes after injection, n=4, p<0.01"}, "[5]": {"conditions": "rat, within 30 seconds of single bolus iv injection, 0.5 mg, n=4, p<0.001"}}, "data": [{"molecule": "B1", "values": [{"measurement": "expected effect on initiation of chronic renal failure (plasma BUN, Cr)", "setting": "nephrectomized rats [1]", "result": "prevent, inhibit or delay the initiation of chronic renal failure"}, {"measurement": "Arterial elastance", "setting": "Sprague Dawley rats; Table 1, renalase vs control 0.94 ± 0.09, n=3, NS", "result": "0.8 ± 0.04", "unit": "mmHg/uL"}, {"measurement": "End diastolic pressure", "setting": "Sprague Dawley rats; Table 1, renalase vs control 11.3 ± 1.8, n=5, NS", "result": "9.3 ± 1.5", "unit": "mmHg"}, {"measurement": "Cardiac Output", "setting": "Sprague Dawley rats; Table 1, renalase vs control 45.8 ± 2.8, n=3, p<0.03", "result": "33.2 ± 1.5", "unit": "mL/min"}, {"measurement": "Mean Arterial Pressure", "setting": "Sprague Dawley rats; Table 1, renalase vs control 106.4 ± 4.7, n=8, p<0.0001", "result": "65.3 ± 3.5", "unit": "mmHg"}, {"measurement": "End systolic pressure", "setting": "Sprague Dawley rats; Table 1, renalase vs control 127.7 ± 8.1, n=5, p<0.004", "result": "92.7 ± 2.7", "unit": "mmHg"}, {"measurement": "Heart rate", "setting": "Sprague Dawley rats; Table 1, renalase vs control 342 ± 6, n=5, p<0.004", "result": "304 ± 9", "unit": "beats/min"}, {"measurement": "Systemic vascular resistance", "setting": "Sprague Dawley rats; Table 1, renalase vs control 2323 ± 196, n=3, NS", "result": "1966 ± 183", "unit": "mmHg/L/min"}, {"measurement": "dP/dt", "setting": "Sprague Dawley rats; Table 1, renalase vs control 8604 ± 728, n=5, p<0.001", "result": "5235 ± 442", "unit": "mmHg/sec"}, {"measurement": "decrease in heart rate", "setting": "Sprague Dawley rats; rat, by 60 min after injection", "result": 6.4, "unit": "%"}, {"measurement": "heart rate, initial response", "setting": "Sprague Dawley rats; rat, initially after bolus iv injection", "result": "unchanged"}, {"measurement": "diastolic arterial pressure lower than baseline at nadir", "setting": "Sprague Dawley rats; [4]", "result": "14.3±1.2", "unit": "%"}, {"measurement": "mean arterial pressure lower than baseline at nadir", "setting": "Sprague Dawley rats; [4]", "result": "14.8±1.1", "unit": "%"}, {"measurement": "systolic arterial pressure lower than baseline at nadir", "setting": "Sprague Dawley rats; [4]", "result": "16.5±1.5", "unit": "%"}, {"measurement": "time to recovery of blood pressure after initial fall", "setting": "Sprague Dawley rats; rat, single bolus iv injection", "result": "≤ 2", "unit": "min"}, {"measurement": "decrease in diastolic arterial pressure", "setting": "Sprague Dawley rats; [5]", "result": "32.6±2.9", "unit": "%"}, {"measurement": "decrease in mean arterial pressure", "setting": "Sprague Dawley rats; [5]", "result": "28.9±2.7", "unit": "%"}, {"measurement": "decrease in systolic arterial pressure", "setting": "Sprague Dawley rats; [5]", "result": "23.5±1.3", "unit": "%"}, {"measurement": "expected treatment benefit to Nx rats (plasma BUN, Cr)", "setting": "nephrectomized rats [2]", "result": "slow down chronic renal failure progression"}, {"measurement": "rank order potency of catecholamine metabolism", "setting": "[3]", "result": "dopamine>epinephrine>norepinephrine"}]}]}
